For series [1], the target named is T1, RcsB-L108A (Salmonella Typhimurium, UniProt P58663 1-216, L108A).
T1 sequence: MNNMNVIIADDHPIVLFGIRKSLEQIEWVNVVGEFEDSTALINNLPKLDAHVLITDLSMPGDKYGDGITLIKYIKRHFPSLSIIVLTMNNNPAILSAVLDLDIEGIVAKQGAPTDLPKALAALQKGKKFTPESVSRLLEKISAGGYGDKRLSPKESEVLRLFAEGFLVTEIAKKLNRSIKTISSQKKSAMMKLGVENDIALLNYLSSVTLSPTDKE
Kind of series: EMSA.

In series [2] the target is T2, RcsB wild-type (Salmonella Typhimurium, UniProt P58663 1-216).
T2 sequence: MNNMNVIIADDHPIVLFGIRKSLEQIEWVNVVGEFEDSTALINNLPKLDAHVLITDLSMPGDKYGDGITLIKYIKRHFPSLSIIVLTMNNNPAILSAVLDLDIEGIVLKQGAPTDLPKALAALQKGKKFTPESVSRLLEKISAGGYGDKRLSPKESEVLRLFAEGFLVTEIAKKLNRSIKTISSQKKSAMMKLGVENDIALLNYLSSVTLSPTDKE
Kind of series: EMSA.

The target of series [3] is T2, RcsB wild-type. Nature of the series: crystal structure.
Series [4] has as its target T2, RcsB wild-type. Kind of series: EMSA. This is another data set of the same source.
Series [5] deals with the molecule itself. Nature of the series: crystal structure.
Series [6] addresses T2, RcsB wild-type. Nature of the series: EMSA. The source holds these as a separate data set.

B1: P1flhDC (dsDNA)
DNA 1: CGAATTAGGAAAAATCTTAGGCG
DNA 2: CGCCTAAGATTTTTCCTAATTCG
As for B1, the binding result in series [1] is “no binding”.

B2: P1flhDC second AGA to AGG (dsDNA)
DNA 1: CGAATTAGGAAAAACCTTAGGCG
DNA 2: CGCCTAAGGTTTTTCCTAATTCG
As to B2, in series [2], the binding result is on record as “binds”.

B3: PrprA (dsDNA)
DNA 1: CCTATTGAGACGAATCTGATCGG
DNA 2: CCGATCAGATTCGTCTCAATAGG
With B3, the binding result in series [3] was “binds”.

B4: osmB (dsDNA)
DNA 1: CTCTCTAAGACTTTTCTGACATC
DNA 2: GATGTCAGAAAAGTCTTAGAGAG
On to B4, for which the binding result in series [4] was “binds”.

B5: ytfK (dsDNA)
DNA 1: GATGTTTAGATAATTCTGAATAA
DNA 2: TTATTCAGAATTATCTAAACATC
In the case of B5, the binding result in series [4] is “binds”.

B6: nlpD (dsDNA)
DNA 1: ACCTTTCGGAATATTCCCATACT
DNA 2: AGTATGGGAATATTCCGAAAGGT
For B6, the binding result in series [4] is reported as “binds”.

B7: RcsB from S. Typhimurium, full-length wild-type, bound to phosphomimetic BeF3- (natural protein, UniProt P58663 1-216, looked up)
chain: MNNMNVIIADDHPIVLFGIRKSLEQIEWVNVVGEFEDSTALINNLPKLDAHVLITDLSMPGDKYGDGITLIKYIKRHFPSLSIIVLTMNNNPAILSAVLDLDIEGIVLKQGAPTDLPKALAALQKGKKFTPESVSRLLEKISAGGYGDKRLSPKESEVLRLFAEGFLVTEIAKKLNRSIKTISSQKKSAMMKLGVENDIALLNYLSSVTLSPTDKE
modifications: phosphomimetic BeF3- bound in the active site (phosphorylatable residue D56)
For B7, the “stoichiometry N” value in series [5] was determined as 2.

B8: P1flhDC first GGA to AGA (dsDNA)
DNA 1: CGAATTAAGAAAAATCTTAGGCG
DNA 2: CGCCTAAGATTTTTCTTAATTCG
Regarding B8, the binding result in series [6] is given as “binds”.

B9: flgA (dsDNA)
DNA 1: GTTAATAAGAATATTCCCATCAG
DNA 2: CTGATGGGAATATTCTTATTAAC
Consider B9, for which the binding result in series [4] is on record as “binds”.

The values are drawn from publication PMC7913699 (Nucleic Acids Research, 2021).
